# According to publication PMC3575510, “Antibiotic Inducibility of the mexXY Multidrug Efflux Operon of Pseudomonas aeruginosa: Involvement of the MexZ Anti-Repressor ArmZ” (PLoS ONE, 2013):
# B1: ArmZ (PA5471) wild type (LexA DNA-binding domain fusion encoded by pSF005, pDP804::armZ) (natural protein)
# chain: MGNYIKPLSAGVALIASDSTWIEGKAIQQLQTTAELDGMCRVVGLPDLHPGRGYPVGAAFFSVGRFYPALVGNDIGCGMALWETGLALGKLSADKLEKRLGNLDLPLDETWSDCIEALDLPAREHWRALGTIGGGNHFAELQQVETVFDQAALHALGLDADRLQLLVHSGSRGLGQAILQEHVSLHGHAGLLDGSLEASAYLARHADALRFAEGNRQLIARRILERLRCDGLELLDINHNLVVPAQVDGVDGWLHRKGATPADQGVLVIPGSRGDYSYLVEPVPSAQSLFSLAHGAGRKWQRGECRERLAARFSVDQLGRTRLGSRVICGDRQLIYEEAPEAYKGIDSVVGALLEAGLLRLVARLKPVLTYKTRGECCR
# notes: also called anti-repressor MexZ; ArmZ (WT); source: E. coli SU202, bacterial two-hybrid fusion expressed from pSF005 (pDP804::armZ)
# Biological target: T1, MexZ (LexA DNA-binding domain fusion encoded by pSF004, pMS604::mexZ) (P. aeruginosa, UniProt G3XCU9 1-210)
# T1 construct: also called repressor of mexXY; mexZ product; source: E. coli SU202, bacterial two-hybrid fusion expressed from pSF004 (pMS604::mexZ)
# T1 sequence: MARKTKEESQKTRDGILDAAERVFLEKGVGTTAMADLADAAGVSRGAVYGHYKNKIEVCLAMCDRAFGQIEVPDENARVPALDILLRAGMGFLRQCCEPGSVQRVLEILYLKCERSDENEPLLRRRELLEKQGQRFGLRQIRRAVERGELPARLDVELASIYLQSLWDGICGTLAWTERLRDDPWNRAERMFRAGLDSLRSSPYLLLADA
# Experiment: two-hybrid; bacterial LexA-based two-hybrid in E. coli SU202 (pMS604 and pDP804 derivatives); cells grown to mid-log phase in L-broth with 5 mM IPTG; interaction represses lacZ, read as reduced β-galactosidase activity
# Conditions: partners not purified
binder,measurement,value
B1,fold reduction of β-galactosidase activity (relative to SU202 carrying the mexZ plasmid only),3 fold
